The numbers were not newly measured in paper PMC7076691, which cites them from elsewhere.

The term Kd denotes the equilibrium constant for the complex coming apart.

This data set has as its target Bfd (Pseudomonas aeruginosa) (UniProt Q9HY80).
UniProt Q9HY80, sequence (Q9HY80 whole entry): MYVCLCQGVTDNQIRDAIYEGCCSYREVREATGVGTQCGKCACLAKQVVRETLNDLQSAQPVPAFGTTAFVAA

For the substance BfrB (from UniProt Q9HY79), the equilibrium dissociation constant (Kd) is 3000 nM.
